The record followed here is the supplement of paper PMC5998384.

Series [1] has as its system HeLa Kyoto. The series can be described thus: solubility in G1/S (NP-40 vs SDS abundance) (log2 ratio); higher = more soluble. Particulars: cell cycle stage: G1/S.
Series [2] has as its system HeLa Kyoto. In words: melting temperature (median over replicates), in situ; higher = more thermally stable.
Series [3] concerns HeLa Kyoto. In words: solubility change mitosis vs G1/S (difference of NP-40 vs SDS log2 ratios) (log2 ratio difference); higher = more soluble in mitosis.
Series [4] has as its system HeLa Kyoto. In words: thermal stability score vs G1/S (z-score of summed log2 fold changes over temperatures); higher = more thermally stable than in G1/S.
The mark [5] stands for this setting: cell cycle stage: early G1 (4.5 h after nocodazole release).
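For melting temperature (median over replicates), in situ in this document: HeLa Kyoto cells synchronized by double thymidine or nocodazole block, proteins quantified by TMT10plex mass spectrometry, three independent biological replicates.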
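For solubility change mitosis vs G1/S (difference of NP-40 vs SDS log2 ratios) in this document: synchronized HeLa Kyoto cells (double thymidine block for G1/S, nocodazole release for mitosis), protein amounts in NP-40 versus SDS lysates quantified by mass spectrometry, three biological replicates.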
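For solubility in G1/S (NP-40 vs SDS abundance) in this document: HeLa Kyoto cells arrested at G1/S by double thymidine block, proteins quantified by TMT10plex mass spectrometry in mild NP-40 versus SDS extracts, three biological replicates.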
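For thermal stability score vs G1/S (z-score of summed log2 fold changes over temperatures) in this document: synchronized HeLa Kyoto cells, proteins quantified by TMT10plex mass spectrometry, three biological replicates, mitosis taken 0.5 h after nocodazole release, G1/S directly after double thymidine block.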

For the sequence “MSETVICSSRATVMLYDDGNKRWLPAGTGPQAFSRVQIYHNPTANSFRVVGRKMQPDQQVVINCAIVRGVKYNQATPNFHQWRDARQVWGLNFGSKEDAAQFAAGMASALEALEGGGPPPPPALPTWSVPNGPSPEEVEQQKRQQPGPSEHIERRVSNAGGPPAPPAGGPPPPPGPPPPPGPPPPPGLPPSGVPAAAHGAGGGPPPAPPLPAAQGPGGGGAGAPGLAAAIAGAKLRKVSKQEEASGGPTAPKAESGRSGGGGLMEEMNAMLARRRKATQVGEKTPKDESANQEEPEARVPAQSESVRRPWEKNSTTLPRMKSSSSVTTSETQPCTPSSSDYSDLQRVKQELLEEVKKELQKVKEEIIEAFVQELRKRGSP [VASP]”, the “solubility in G1/S (log2)” value in the series on HeLa Kyoto [1] stood at 0.466. Further, the melting temperature in the series on HeLa Kyoto [2] (cell cycle stage: G1/S) amounted to 49.7 °C; in the series on HeLa Kyoto [2] (cell cycle stage: mitosis) it was 50.4 °C. Besides, the “solubility change mitosis (log2)” value with HeLa Kyoto [3] is 0.0947. Further, the thermal stability score in the series on HeLa Kyoto [4] (setting [5]) was determined as 0.605; with HeLa Kyoto [4] (cell cycle stage: mitosis) it was 2.18.

Turning to “MPSRKFADGEVVRGRWPGSSLYYEVEILSHDSTSQLYTVKYKDGTELELKENDIKPLTSFRQRKGGSTSSSPSRRRGSRSRSRSRSPGRPPKSARRSASASHQADIKEARREVEVKLTPLILKPFGNSISRYNGEPEHIERNDAPHKNTQEKFSLSQESSYIATQYSLRPRREEVKLKEIDSKEEKYVAKELAVRTFEVTPIRAKDLEFGGVPGVFLIMFGLPVFLFLLLLMCKQKDPSLLNFPPPLPALYELWETRVFGVYLLWFLIQVLFYLLPIGKVVEGTPLIDGRRLKYRLNGFYAFILTSAVIGTSLFQGVEFHYVYSHFLQFALAATVFCVVLSVYLYMRSLKAPRNDLSPASSGNAVYDFFIGRELNPRIGTFDLKYFCELRPGLIGWVVINLVMLLAEMKIQDRAVPSLAMILVNSFQLLYVVDALWNEEALLTTMDIIHDGFGFMLAFGDLVWVPFIYSFQAFYLVSHPNEVSWPMASLIIVLKLCGYVIFRGANSQKNAFRKNPSDPKLAHLKTIHTSTGKNLLVSGWWGFVRHPNYLGDLIMALAWSLPCGFNHILPYFYIIYFTMLLVHREARDEYHCKKKYGVAWEKYCQRVPYRIFPYIY [LBR]”, the “solubility in G1/S (log2)” value in the series on HeLa Kyoto [1] is -0.228. In addition, the values for the melting temperature with HeLa Kyoto [2] (cell cycle stage: G1/S) and in the series with HeLa Kyoto [2] (cell cycle stage: mitosis) were 53.1 °C and 52.5 °C, respectively. Besides, in the series with HeLa Kyoto [3], the “solubility change mitosis (log2)” value was -0.0634. The values for the thermal stability score in the series with HeLa Kyoto [4] (setting [5]) and with HeLa Kyoto [4] (cell cycle stage: mitosis) were -0.47 and -1.19, respectively.

In the case of “MLAARLVCLRTLPSRVFHPAFTKASPVVKNSITKNQWLLTPSREYATKTRIGIRRGRTGQELKEAALEPSMEKIFKIDQMGRWFVAGGAAVGLGALCYYGLGLSNEIGAIEKAVIWPQYVKDRIHSTYMYLAGSIGLTALSAIAISRTPVLMNFMMRGSWVTIGVTFAAMVGAGMLVRSIPYDQSPGPKHLAWLLHSGVMGAVVAPLTILGGPLLIRAAWYTAGIVGGLSTVAMCAPSEKFLNMGAPLGVGLGLVFVSSLGSMFLPPTTVAGATLYSVAMYGGLVLFSMFLLYDTQKVIKRAEVSPMYGVQKYDPINSMLSIYMDTLNIFMRVATMLATGGNRKK [GHITM]”, the “solubility in G1/S (log2)” value with HeLa Kyoto [1] is -0.101. Also, the melting temperature came to 54.7 °C in the series with HeLa Kyoto [2] (cell cycle stage: G1/S) and 55.1 °C in the series on HeLa Kyoto [2] (cell cycle stage: mitosis). The “solubility change mitosis (log2)” value in the series on HeLa Kyoto [3] came to 0.0227. The figures for the thermal stability score in the series on HeLa Kyoto [4] (setting [5]) and in the series with HeLa Kyoto [4] (cell cycle stage: mitosis) were -2.96 and -4.77, respectively.

For the sequence “MSNEVETSATNGQPDQQAAPKAPSKKEKKKGPEKTDEYLLARFKGDGVKYKAKLIGIDDVPDARGDKMSQDSMMKLKGMAAAGRSQGQHKQRIWVNISLSGIKIIDEKTGVIEHEHPVNKISFIARDVTDNRAFGYVCGGEGQHQFFAIKTGQQAEPLVVDLKDLFQVIYNVKKKEEEKKKIEEASKAVENGSEALMILDDQTNKLKSGVDQMDLFGDMSTPPDLNSPTESKDILLVDLNSEIDTNQNSLRENPFLTNGITSCSLPRPTPQASFLPENAFSANLNFFPTPNPDPFRDDPFTQPDQSTPSSFDSLKSPDQKKENSSSSSTPLSNGPLNGDVDYFGQQFDQISNRTGKQEAQAGPWPFSSSQTQPAVRTQNGVSEREQNGFSVKSSPNPFVGSPPKGLSIQNGVKQDLESSVQSSPHDSIAIIPPPQSTKPGRGRRTAKSSANDLLASDIFAPPVSEPSGQASPTGQPTALQPNPLDLFKTSAPAPVGPLVGLGGVTVTLPQAGPWNTASLVFNQSPSMAPGAMMGGQPSGFSQPVIFGTSPAVSGWNQPSPFAASTPPPVPVVWGPSASVAPNAWSTTSPLGNPFQSNIFPAPAVSTQPPSMHSSLLVTPPQPPPRAGPPKDISSDAFTALDPLGDKEIKDVKEMFKDFQLRQPPAVPARKGEQTSSGTLSAFASYFNSKVGIPQENADHDDFDANQLLNKINEPPKPAPRQVSLPVTKSTDNAFENPFFKDSFGSSQASVASSQPVSSEMYRDPFGNPFA [DAB2]”, in the series on HeLa Kyoto [1], the “solubility in G1/S (log2)” value was determined as 0.277. Besides, the melting temperature in the series on HeLa Kyoto [2] (cell cycle stage: G1/S) came to 48.5 °C; in the series with HeLa Kyoto [2] (cell cycle stage: mitosis), 50.3 °C. Besides, the “solubility change mitosis (log2)” value with HeLa Kyoto [3] was -0.113. Besides, the figures for the thermal stability score in the series on HeLa Kyoto [4] (setting [5]) and with HeLa Kyoto [4] (cell cycle stage: mitosis) were 2.68 and 5.04, respectively.

Regarding “MPGETEEPRPPEQQDQEGGEAAKAAPEEPQQRPPEAVAAAPAGTTSSRVLRGGRDRGRAAAAAAAAAVSRRRKAEYPRRRRSSPSARPPDVPGQQPQAAKSPSPVQGKKSPRLLCIEKVTTDKDPKEEKEEEDDSALPQEVSIAASRPSRGWRSSRTSVSRHRDTENTRSSRSKTGSLQLICKSEPNTDQLDYDVGEEHQSPGGISSEEEEEEEEEMLISEEEIPFKDDPRDETYKPHLERETPKPRRKSGKVKEEKEKKEIKVEVEVEVKEEENEIREDEEPPRKRGRRRKDDKSPRLPKRRKKPPIQYVRCEMEGCGTVLAHPRYLQHHIKYQHLLKKKYVCPHPSCGRLFRLQKQLLRHAKHHTDQRDYICEYCARAFKSSHNLAVHRMIHTGEKPLQCEICGFTCRQKASLNWHMKKHDADSFYQFSCNICGKKFEKKDSVVAHKAKSHPEVLIAEALAANAGALITSTDILGTNPESLTQPSDGQGLPLLPEPLGNSTSGECLLLEAEGMSKSYCSGTERVSLMADGKIFVGSGSSGGTEGLVMNSDILGATTEVLIEDSDSAGP [ZFP91]”, the “solubility in G1/S (log2)” value in the series with HeLa Kyoto [1] is -0.401. The values for the melting temperature in the series on HeLa Kyoto [2] (cell cycle stage: G1/S) and with HeLa Kyoto [2] (cell cycle stage: mitosis) were 51.9 °C and 53.2 °C, respectively. In the series with HeLa Kyoto [3], the “solubility change mitosis (log2)” value stood at 0.0732. The thermal stability score in the series on HeLa Kyoto [4] (setting [5]) came out at 2.06; in the series on HeLa Kyoto [4] (cell cycle stage: mitosis) it was 1.42.

For the sequence “MDKLKKVLSGQDTEDRSGLSEVVEASSLSWSTRIKGFIACFAIGILCSLLGTVLLWVPRKGLHLFAVFYTFGNIASIGSTIFLMGPVKQLKRMFEPTRLIATIMVLLCFALTLCSAFWWHNKGLALIFCILQSLALTWYSLSFIPFARDAVKKCFAVCLA [SFT2D2]”, in the series with HeLa Kyoto [1], the “solubility in G1/S (log2)” value turned out to be 0.0285. The figures for the melting temperature in the series on HeLa Kyoto [2] (cell cycle stage: G1/S) and in the series with HeLa Kyoto [2] (cell cycle stage: mitosis) were 57.4 °C and 61.1 °C, respectively. Moreover, the “solubility change mitosis (log2)” value with HeLa Kyoto [3] stood at 0.0654. Also, the thermal stability score was -0.835 in the series on HeLa Kyoto [4] (setting [5]) and -0.774 with HeLa Kyoto [4] (cell cycle stage: mitosis).
